For four molecules, Kd, koff and kon results are on record in US20240417436A1 (BRIGHT PEAK THERAPEUTICS, published 2024).

*1 amine or outer side, *2 acyl side, *3 side chain or, on linkers, in order; H or OH if unused. Bridges are numbered along the chain shown (N, C = ends). Primed or numbered codes have the meaning given here. [ ]: non-standard residue; d: D form. cleavable peptide RGRRVANLVG = CC(C)C[C@H](NC(=O)[C@H](CC(N)=O)NC(=O)[C@H](C)NC(=O)[C@@H](NC(=O)[C@H](CCCNC(=N)N)NC(=O)[C@H](CCCNC(=N)N)NC(=O)CNC(=O)[C@H](CCCNC(=N)N)N[*:1])C(C)C)C(=O)N[C@H](C(=O)NCC(=O)[*:2])C(C)C; Ygp = O-(8x polyethylene glycol-amino)-tyrosine; Yn3 = O-(9x polyethylene glycol-azido)-tyrosine; Ygp(3) = O-(PEG8-amino)-tyrosine; Yn3(3) = O-(PEG9-azido)-tyrosine; hSer = N[C@@H](CCO)C(=O)O; Nle = CCCC[C@H](N)C(=O)O

Test [1] addresses T1, recombinant human IL-2 receptor beta containing a His-tag and Avi-Tag (R&D Systems #AVI10459) (human, UniProt P14784 27-239).
T1 construct: bought protein, held on the Octet SAX2 sensor; also called CD122; IL-2Rβ
T1 sequence (looked up): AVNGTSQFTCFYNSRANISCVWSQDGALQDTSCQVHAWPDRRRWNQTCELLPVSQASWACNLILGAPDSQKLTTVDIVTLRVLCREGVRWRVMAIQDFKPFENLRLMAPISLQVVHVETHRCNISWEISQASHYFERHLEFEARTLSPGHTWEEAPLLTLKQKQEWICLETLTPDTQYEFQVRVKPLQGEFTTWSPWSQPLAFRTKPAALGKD
Put plainly: BLI (Octet), receptor on SAX2 sensor, IL-2 as analyte; construct CMP-167, intact (not the MMP2-treated row r22). Here is the method: (§1) Bilayer interferometry (BLI) assays were used to measure the binding constants between activatable IL-2 polypeptides (and activated versions thereof) to IL-2 receptor subunits or receptor complexes. BLI assays were conducted on an Octet® R8 instrument. Assay plates were 96 well, polypropylene, F-bottom (chimney well), black microplates (Greiner Bio-one, Cat. No: 655209). The biosensors were Octet® SAX2 (Sartorius, Cat. No: 18-5136). The assay buffer was 1× Kinetic Buffer (Sartorius, Cat. no: 18-5136) or Phosphate Buffered Saline (PBS) that contained 0.02% (v: v) Tween 20 (Polysorbate 20) and 0.1% (w/v) bovine serum albumin (BSA). The sensor was regenerated between measurements in 10 mM glycine pH 2.7 buffer.
(§2) Sensor attached receptors were either recombinant human IL-2 receptor beta containing a His-tag and Avi-Tag™ (R&D Systems™ #AVI10459) or an Avi-Tag™ Fc with human IL-2R beta and IL-2R gamma attached (Acrobiosystems Cat. no: ACRB-ILG-H82F3-25UG). Receptors were reconstituted from lyophilized powder to 500 μg/ml in PBS. Analytes were diluted in Kinetic buffer to 300 nM, then serially diluted to lower concentrations.

Test [2] has as its target T1, recombinant human IL-2 receptor beta …. Put plainly: BLI (Octet), receptor on SAX2 sensor, IL-2 as analyte; construct CMP-166, intact (not the MMP2-treated row r19). Here is the method: as §1, §2
A general note: In BLI a coated tip is dipped into the sample, and binding shifts an interference pattern.

Test [3] has the same target. Put plainly: BLI (Octet), receptor on SAX2 sensor, IL-2 as analyte.
In test [4] the target is T2, Avi-Tag Fc with human IL-2R beta and IL-2R gamma attached (Acrobiosystems ACRB-ILG-H82F3-25UG) (human, UniProt P14784 27-239; P31785 23-262).
T2 construct: bought heterodimer; also called CD122 CD132; CD122/CD132 complex
T2 sequence (looked up) 1: T1 sequence (looked up)
T2 sequence (looked up) 2: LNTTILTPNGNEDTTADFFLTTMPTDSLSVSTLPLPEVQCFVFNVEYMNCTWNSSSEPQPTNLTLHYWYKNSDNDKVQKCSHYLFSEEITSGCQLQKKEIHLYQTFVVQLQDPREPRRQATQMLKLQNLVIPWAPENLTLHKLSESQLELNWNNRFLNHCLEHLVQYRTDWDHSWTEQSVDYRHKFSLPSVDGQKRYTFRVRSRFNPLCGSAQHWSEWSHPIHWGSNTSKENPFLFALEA
The description is as above.

Test [5] deals with T1, recombinant human IL-2 receptor beta …. Put plainly: BLI (Octet), receptor on SAX2 sensor, IL-2 as analyte; construct CMP-328. As for the experimental part: as §1, §2
Test [6] shares this target. The test is described as follows: BLI (Octet), receptor on SAX2 sensor, IL-2 as analyte; construct CMP-313. Here is the method:
as §1, §2

B1: CMP-167 (ligand)
chain: APTSSSTKKTQLQLEHLLLDLQKILNGINNYKNPKLTR[Nle]L[hSer][Yn3]KF[Ygp][Nle]PKKATELKHLQCLEEELKPLEEVL[hSer]LAQSKNFHLRPRDLISNINVIVLELKGSETTF[hSer]CEYADETATIVEFLNRWITFSQSIISTLT
modifications: disulfide 58-105 (inferred); bridge N-23; not fully specified (bridges); also: cleavable peptide (sequence not given here) joined to N-terminus via glutaryl-PEG9 and to Lys23 side chain
What is called Kd is the equilibrium constant for the complex coming apart. As for B1, in test [1], the Kd came to 215 nM.

B2: CMP-166 (ligand)
chain: APTSSSTKKTQLQLEHLLLDLQKILNGINNYKNPKLTR[Nle]L[hSer][Yn3]KF[Ygp][Nle]PKKATELKHLQCLEEELKPLEEVL[hSer]LAQSKNFHLRPRDLISNINVIVLELKGSETTF[hSer]CEYADETATIVEFLNRWITFSQSIISTLT
modifications: disulfide 58-105 (inferred); bridge N-23; not fully specified (bridges); also: cleavable peptide (sequence not given here) joined to N-terminus via glutaryl-PEG4 and to Lys23 side chain
Regarding B2, in test [2], the Kd amounted to 614 nM.

B3: CMP-328 (ligand)
chain: APTSSSTKKTQLQLEHLLLDLQEILNGINNYKNPKLTR[Nle]L[hSer][Yn3(3)]KF[Ygp(3)][Nle]PKKATELKHLQCLEEELKPLEEVL[hSer]LAQSKNFHLRPRDLISNINVIVLELKGSETTF[hSer]CEYADETATIVEFLNRWITFSQSIISTLT
modifications: disulfide 58-105; linker 9-23 via cleavable peptide RGRRVANLVG; also: macrocycle: cleavable peptide bridging Lys9 and Glu23 side chains (structure drawing only)
Broadly, the koff is the first-order rate constant of dissociation. Usually kon stands for a measure of how fast the partners come together. With B3, in test [3], the koff was found to be 0.00154 s⁻¹ and the kon amounted to 4.52e+07 M⁻¹ s⁻¹. Further, in test [4], the affinity, expressed as Kd, was 24.9 nM; the koff turned out to be 0.00194 s⁻¹; the kon came to 77800 M⁻¹ s⁻¹. In test [5], the Kd came to 0.034 nM.

B4: CMP-313 (ligand)
chain: APTSSSTKKTQLQLEHLLLDLQK(KKRGRRVANLVG)ILNGINNYKNPKLTR[Nle]L[hSer][Yn3(3)]KF[Ygp(3)][Nle]PKKATELKHLQCLEEELKPLEEVL[hSer]LAQSKNFHLRPRDLISNINVIVLELKGSETTF[hSer]CEYADETATIVEFLNRWITFSQSIISTLT
modifications: disulfide 58-105; also: branched 27x PEG chains on the attached peptide
B4 had a koff in test [4] of 0.00148 s⁻¹. Further, the Kd in test [6] is 163 nM.
